Test results: publication doi:10.1101/2023.09.01.555900 (bioRxiv, 2023)

Target: Rho factor (E. coli transcription termination factor Rho) (E. coli, UniProt P0AG30 1-419)
Assay: SEC

Sequence of Rho factor (E. coli transcription termination factor Rho) (P0AG30 whole entry): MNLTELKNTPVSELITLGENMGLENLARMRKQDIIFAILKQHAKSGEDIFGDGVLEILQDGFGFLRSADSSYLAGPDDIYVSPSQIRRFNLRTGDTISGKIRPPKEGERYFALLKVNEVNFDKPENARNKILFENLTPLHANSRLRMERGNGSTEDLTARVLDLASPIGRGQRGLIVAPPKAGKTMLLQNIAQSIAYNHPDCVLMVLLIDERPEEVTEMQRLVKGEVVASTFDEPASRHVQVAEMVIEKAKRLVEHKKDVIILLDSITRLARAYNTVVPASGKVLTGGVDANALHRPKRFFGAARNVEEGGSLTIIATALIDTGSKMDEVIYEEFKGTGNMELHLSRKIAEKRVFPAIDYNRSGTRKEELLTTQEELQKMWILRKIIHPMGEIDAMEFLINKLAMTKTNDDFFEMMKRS

B1: Rof (Rho-off, also called YaeO) (natural protein, E. coli)
chain: MNDTYQPINCDDYDNLELACQHHLMLTLELKDGEKLQAKASDLVSRKNVEYLVVEAAGETRELRLDKITSFSHPEIGTVVVSES
Q: Does B1 bind?
A: Result: binds
